{"source": "patent US7928289B2", "about": "“Method for production of transgenic plants with increased pathogenic resistance by altering the content and/or activity of actin-depolymerising factors” (BASF Plant Science GmbH, priority 2004, dated 2011)", "molecules": {"B1": {"name": "HvADF3 (S^6A): Constitutively active variant of barley ADF3 (SEQ ID No. 2) with S6A substitution, overexpressed from vector pHvADF3-CA (protein)", "chain": "MANASAGAGIHDDCKLRFVELKSKRMHRFITYRLENQKEVIVDQTGQRDATYEDFTKTLPENDCRFAVFDFDFTTPEDVPKSRIFYIFWSPDTAKVRSKMTYASNEKFKRTLDGIQIEMQATDPSEISLDVIKERAH", "modifications": "Hordeum vulgare"}, "B2": {"name": "AtADF3: ADF3 from Arabidopsis thaliana (SEQ ID No. 11), expressed constitutively (pSUN2) or pathogen-inducibly (Lo123) in transgenic Arabidopsis plants (protein, listed as Arabidopsis thaliana)", "chain": "MANAASGMAVHDDCKLKFMELKTKRTHRFIIYKIEELQKQVIVEKIGEPGQTHEDLAASLPADECRYAIFDFDFVSSEGVPRSRIFFVAWSPDTARVRSKMIYASSKDRFKRELDGIQVELQATDPTEMDLDVFKSRAN"}}, "key": {"[1]": {"test_system": "peroxisomes", "assay": "Movement of GFP-labeled peroxisomes in transfected epidermal leaf cells", "format": "cell-based, Hordeum vulgare", "conditions": "epidermal leaf cells from barley; co-expression with GFP having peroxisomal targeting sequence", "description": "In order to further examine the HvADF3 function in barley, the effect of the overexpression or the silencing of HvADF3 on the mobility of peroxisomes was examined. Peroxisomes are known to be moved along actin filaments (Mathur (2002) Plant Physiology, Vol. 128, 1031-1045). Herein, barley peroxisomes were visualized by co-transformation of a plasmid expressing a variant of the Green Fluorescent Protein (GFP) with a peroxisomal targeting sequence (Mathur et al., vide supra). Herein, epidermal leaf cells from barley were transfected either only with the GFP construct or together with the already mentioned mutant of HvADF3 (S^6A). The expression of said mutant corresponds to an increase of the content and the activity of ADF3.\nWith the aid of the PCR method, a so-called peroxisome target sequence (PTS) was fused C-terminally to the green fluorescent protein. Said sequence consists of the three amino acids serine (S), […], and leucine (L) (Jedd, G. et al. (2002) Plant Cell Physiol 43, 384-392).\nThe GFP peroxisome target sequence vector (pGFPTS, FIG. 6) has a maize polyubiquitin promoter (pUbi), the coding gene for the green fluorescent protein including the peroxisome target sequence (GFPTS), and a nopaline synthase transcription terminator sequence (NOS).\nThe overexpression of HvADF3 was performed as described in the above. […]"}, "[2]": {"test_system": "actin cytoskeleton", "assay": "Phalloidine staining of the actin cytoskeleton in transfected epidermal leaf cells", "format": "cell-based, Hordeum vulgare", "conditions": "BCIngridmlo5; cells labeled with dsRED", "description": "For this experiment, epidermal leaf cells from barley were transfected with a plasmid expressing dsRED (RFP) in order to label the transfected cells. In addition in some experiments, a constitutively active variant of HvADF3 bearing an S^6A amino acid substitution rendering the protein inaccessible for N-terminal phosphorylation was expressed. A corresponding mutant was described for ADF3 from maize (Smertenko et al., Plant J 14, 187-193).\nAs described in the above, said vectors were then used for transfecting the plants.\nThe dsRED vector (pUbi-RFP-Nos, FIG. 4) has a maize polyubiquitin promoter (pUbi), the coding gene for the red fluorescent protein (Discosoma sp. fluorescent protein FP583; RFP), and a nopaline synthase transcription termination sequence (NOS). The GenBank accession number for RFP is AF168419.\nThe experiments were conducted in BCIngridmlo5."}, "[3]": {"test_system": "Blumeria graminis f. sp. hordei (Bgh)", "assay": "Fungal development on epidermal leaf cells co-transfected with GUS reporter and HvADF3(S^6A)", "format": "cell-based, Hordeum vulgare", "conditions": "BCIngridmlo5; Bgh conidia four hours after bombardment", "experimental": "Therefore, those cells were examined, which had been transfected with HvADF3 overexpression constructs.\nFor said experiments, epidermal leaf cells from barley were co-transfected with a plasmid for the GUS reporter together with a plasmid coding for HvADF3(S^6A), as was described in the above. Four hours after bombardment, the leaves were infected with Bgh conidia, and 22 hours after inoculation the leaves were stained with respect to GUS activity and fungal structures. FIGS. 8a and b show the fungal development in a transfected epidermal leaf cell. […] The expression of HvADF3(S^6A) corresponds to an overexpression of HvADF3. The experiments were performed in BCIngridmlo5 plants."}, "[4]": {"test_system": "Peronospora parasitica", "assay": "Infection of transgenic Arabidopsis plants with Peronospora parasitica", "format": "in vivo, Arabidopsis thaliana", "conditions": "constitutive or pathogen-inducible expression", "experimental": "(§1) The transformation is conducted according to the floral dip method (modified according to Clough and Bent, 1998). After being harvested, the seeds are sterilized with chlorine gas overnight and subsequently laid out on selection plates. The addition of antibiotics is conducted in dependency on the plant resistance marker. In case of pSUN2, BASTA is added; in case of Lo123, kanamycin is added. After sterilization, the seeds are laid out on the selection plates and are stored for stratification for two days at 4° C. in a cooling chamber. Subsequently, they are further observed under short-day conditions. After about 10 days, the first selection of the plants can be performed. Non-transgenic plants will lose color during selection, while transgenic plants having the corresponding resistance gene remain green. Those plants remaining green after the first selection are selected a second time under same conditions. Those plants still maintaining their color during the second selection can then be transferred to soil. The plants are selfed and the resulting T2 seed populations are subjected to phytopathological analysis. […]\n5 to 8-week-old plants are sprayed with a conidia spore suspension (about 10^6 spores/ml). […] These symptoms are quantified and tested for significance."}, "[5]": {"test_system": "Erysiphe cichoracearum", "assay": "Infection of transgenic Arabidopsis plants with Erysiphe cichoracearum", "format": "in vivo, Arabidopsis thaliana", "conditions": "constitutive or pathogen-inducible expression", "experimental": "as §1\nThe biotrophic mildew fungus is cultivated on Arabidopsis thaliana plants. […] These symptoms are quantified and tested for significance."}}}
{"molecule": "B1", "values": [{"measurement": "peroxisomal movement", "setting": "[1]", "value": "considerably reduced"}, {"measurement": "phalloidine-stainable actin fibers in bombarded cells", "setting": "[2]", "value": "stainable actin fibers could only be detected in the neighboring cells, but not in the bombarded cells"}, {"measurement": "fungal development in transfected cells", "setting": "[3]", "value": "the fungus can only form very short hyphae"}]}
{"molecule": "B2", "values": [{"measurement": "resistance to Peronospora parasitica as compared to non-transgenic wild-type plants", "setting": "[4]", "value": "significantly increased resistance"}, {"measurement": "resistance to Erysiphe cichoracearum as compared to non-transgenic wild-type plants", "setting": "[5]", "value": "significantly increased resistance"}]}
